Experimental data published in patent US20240270846A1 (published 2024).
Substitutions are numbered along the chain they refer to. Names may count otherwise.

B1: GLS3000 Q93D one-arm antibody (antibody, human IgG1, kappa, L234A L235A, N297A, name in Kabat numbering)
light: DIVMTQSPLSLPVTPGEPASISCRSSQSLVHSNRNTYLHWYQQKPGQAPRLLIYKVSNRFSGVPDRFSGSGSGTDFTLKISRVEAEDVGVYYCGQGTDVPYTFGQGTKLEIKRTVAAPSVFIFPPSDEQLKSGTASVVCLLNNFYPREAKVQWKVDNALQSGNSQESVTEQDSKDSTYSLSSTLTLSKADYEKHKVYACEVTHQGLSSPVTKSFNRGEC
heavy: QVQLVESGGGVVQPGRSLRLSCAASGFTFSNAWMHWVRQAPGKGLEWVAQIKAKSNNYATYYAESVKGRFTISRDDSKNSLYLQMNSLKTEDTAVYYCRYVHYGAYYGVDAWGQGTTVTVSSASTKGPSVFPLAPSSKSTSGGTAALGCLVKDYFPEPVTVSWNSGALTSGVHTFPAVLQSSGLYSLSSVVTVPSSSLGTQTYICNVNHKPSNTKVDKKVEPKSCDKTHTCPPCPAPEAAGGPSVFLFPPKPKDTLMISRTPEVTCVVVDVSHEDPEVKFNWYVDGVEVHNAKTKPREEQYASTYRVVSVLTVLHQDWLNGKEYKCKVSNKALPAPIEKTISKAKGQPREPQVYTLPPSRCELTKNQVSLSCAVKGFYPSDIAVEWESNGQPENNYKTTPPVLDSDGSFFLVSKLTVDKSRWQQGNVFSCSVMHEALHNHYTQKSLSLSPDYKDDDDK
chain: EPKSSDKTHTCPPCPAPELLGGPSVFLFPPKPKDTLMISRTPEVTCVVVDVSHEDPEVKFNWYVDGVEVHNAKTKPREEQYNSTYRVVSVLTVLHQDWLNGKEYKCKVSNKALPAPIEKTISKAKGQPREPQVCTLPPSRDELTKNQVSLWCLVKGFYPSDIAVEWESNGQPENNYKTTPPVLDSDGSFFLYSKLTVDKSRWQQGNVFSCSVMHEALHNRYTQKSLSLSP
B2: GLS3000 T31E one-arm antibody (antibody, human IgG1, kappa, L234A L235A, N297A, name in Kabat numbering)
light: B1 light with T36E, D98Q
heavy: B1 heavy
chain: B1 chain
B3: GLS3000 S56F one-arm antibody (antibody, human IgG1, kappa, L234A L235A, N297A, name in Kabat numbering)
light: B1 light with S61F, D98Q
heavy: B1 heavy
chain: B1 chain
B4: GLS3000 S56T one-arm antibody (antibody, human IgG1, kappa, L234A L235A, N297A, name in Kabat numbering)
light: B1 light with S61T, D98Q
heavy: B1 heavy
chain: B1 chain
B5: GLS3000 R54Q one-arm antibody (antibody, human IgG1, kappa, L234A L235A, N297A, name in Kabat numbering)
light: B1 light with R59Q, D98Q
heavy: B1 heavy
chain: B1 chain
B6: GLS3000 R54G one-arm antibody (antibody, human IgG1, kappa, L234A L235A, N297A, name in Kabat numbering)
light: B1 light with R59G, D98Q
heavy: B1 heavy
chain: B1 chain
B7: GLS3000 S56E one-arm antibody (antibody, human IgG1, kappa, L234A L235A, N297A, name in Kabat numbering)
light: B1 light with S61E, D98Q
heavy: B1 heavy
chain: B1 chain
B8: GLS3000 S52P one-arm antibody (antibody, human IgG1, kappa, L234A L235A, N297A, name in Kabat numbering)
light: B1 light with S57P, D98Q
heavy: B1 heavy
chain: B1 chain
B9: GLS3000 S56Y one-arm antibody (antibody, human IgG1, kappa, L234A L235A, N297A, name in Kabat numbering)
light: B1 light with S61Y, D98Q
heavy: B1 heavy
chain: B1 chain
B10: GLS3000 Q93S one-arm antibody (antibody, human IgG1, kappa, L234A L235A, N297A, name in Kabat numbering)
light: B1 light with D98S
heavy: B1 heavy
chain: B1 chain
B11: GLS3000 S56L one-arm antibody (antibody, human IgG1, kappa, L234A L235A, N297A, name in Kabat numbering)
light: B1 light with S61L, D98Q
heavy: B1 heavy
chain: B1 chain
B12: GLS3000 R77S one-arm antibody (antibody, human IgG1, kappa, L234A L235A, N297A, name in Kabat numbering)
light: B1 light with R82S, D98Q
heavy: B1 heavy
chain: B1 chain
B13: GLS3000 Q93P one-arm antibody (antibody, human IgG1, kappa, L234A L235A, N297A, name in Kabat numbering)
light: B1 light with D98P
heavy: B1 heavy
chain: B1 chain
B14: GLS3000 R54E one-arm antibody (antibody, human IgG1, kappa, L234A L235A, N297A, name in Kabat numbering)
light: B1 light with R59E, D98Q
heavy: B1 heavy
chain: B1 chain
B15: GLS3000 S56G one-arm antibody (antibody, human IgG1, kappa, L234A L235A, N297A, name in Kabat numbering)
light: B1 light with S61G, D98Q
heavy: B1 heavy
chain: B1 chain
B16: GLS3000 S56M one-arm antibody (antibody, human IgG1, kappa, L234A L235A, N297A, name in Kabat numbering)
light: B1 light with S61M, D98Q
heavy: B1 heavy
chain: B1 chain
B17: GLS3000 S56R one-arm antibody (antibody, human IgG1, kappa, L234A L235A, N297A, name in Kabat numbering)
light: B1 light with S61R, D98Q
heavy: B1 heavy
chain: B1 chain
B18: GLS3000 S52Y one-arm antibody (antibody, human IgG1, kappa, L234A L235A, N297A, name in Kabat numbering)
light: B1 light with S57Y, D98Q
heavy: B1 heavy
chain: B1 chain
B19: GLS3000 S56H one-arm antibody (antibody, human IgG1, kappa, L234A L235A, N297A, name in Kabat numbering)
light: B1 light with S61H, D98Q
heavy: B1 heavy
chain: B1 chain
B20: GLS3000 S56K one-arm antibody (antibody, human IgG1, kappa, L234A L235A, N297A, name in Kabat numbering)
light: B1 light with S61K, D98Q
heavy: B1 heavy
chain: B1 chain
B21: GLS3000 Q93E one-arm antibody (antibody, human IgG1, kappa, L234A L235A, N297A, name in Kabat numbering)
light: B1 light with D98E
heavy: B1 heavy
chain: B1 chain
B22: GLS3000 S56I one-arm antibody (antibody, human IgG1, kappa, L234A L235A, N297A, name in Kabat numbering)
light: B1 light with S61I, D98Q
heavy: B1 heavy
chain: B1 chain
B23: GLS3000 R54S one-arm antibody (antibody, human IgG1, kappa, L234A L235A, N297A, name in Kabat numbering)
light: B1 light with R59S, D98Q
heavy: B1 heavy
chain: B1 chain
B24: GLS3000 R54W one-arm antibody (antibody, human IgG1, kappa, L234A L235A, N297A, name in Kabat numbering)
light: B1 light with R59W, D98Q
heavy: B1 heavy
chain: B1 chain
B25: GLS3000 S52Q one-arm antibody (antibody, human IgG1, kappa, L234A L235A, N297A, name in Kabat numbering)
light: B1 light with S57Q, D98Q
heavy: B1 heavy
chain: B1 chain
B26: GLS3000 S56W one-arm antibody (antibody, human IgG1, kappa, L234A L235A, N297A, name in Kabat numbering)
light: B1 light with S61W, D98Q
heavy: B1 heavy
chain: B1 chain
B27: GLS3000 S56V one-arm antibody (antibody, human IgG1, kappa, L234A L235A, N297A, name in Kabat numbering)
light: B1 light with S61V, D98Q
heavy: B1 heavy
chain: B1 chain
B28: GLS3000 R54P one-arm antibody (antibody, human IgG1, kappa, L234A L235A, N297A, name in Kabat numbering)
light: B1 light with R59P, D98Q
heavy: B1 heavy
chain: B1 chain
B29: GLS3000 R54T one-arm antibody (antibody, human IgG1, kappa, L234A L235A, N297A, name in Kabat numbering)
light: B1 light with R59T, D98Q
heavy: B1 heavy
chain: B1 chain
B30: GLS3000 S56P one-arm antibody (antibody, human IgG1, kappa, L234A L235A, N297A, name in Kabat numbering)
light: B1 light with S61P, D98Q
heavy: B1 heavy
chain: B1 chain
B31: GLS3000 S56Q one-arm antibody (antibody, human IgG1, kappa, L234A L235A, N297A, name in Kabat numbering)
light: B1 light with S61Q, D98Q
heavy: B1 heavy
chain: B1 chain
B32: GLS3000 Q93R one-arm antibody (antibody, human IgG1, kappa, L234A L235A, N297A, name in Kabat numbering)
light: B1 light with D98R
heavy: B1 heavy
chain: B1 chain
B33: GLS3000 S56N one-arm antibody (antibody, human IgG1, kappa, L234A L235A, N297A, name in Kabat numbering)
light: B1 light with S61N, D98Q
heavy: B1 heavy
chain: B1 chain

Target: T1, CD3 epsilon homodimer protein (UniProt P07766 23-126)
T1 construct: Construct of the homodimer is not described; also called CD3 (CD3 epsilon)
T1 sequence (P07766 23-126): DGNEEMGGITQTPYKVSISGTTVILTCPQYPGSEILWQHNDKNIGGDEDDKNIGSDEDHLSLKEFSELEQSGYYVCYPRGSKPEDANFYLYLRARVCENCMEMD
Test: SPR Biacore T200, CD3e homodimer on chip, antibody analyte;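 note: CD3 epsilon homodimer amine-coupled on CM4 sensor chip, antibodies injected as analyte at 25 °C in HBS-EP+, ratio ≥0.8 taken as binding retained versus unaltered parent antibody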

Row | ratio of amounts bound (altered form/GLS3000) | Binder
1 | 0.72 | B1
2 | 0.49 | B2
3 | 1.32 | B3
4 | 0.97 | B4
5 | 0.68 | B5
6 | 0.67 | B6
7 | 0.71 | B7
8 | 0.33 | B8
9 | 1.46 | B9
10 | 0.96 | B10
11 | 1.02 | B11
12 | 0.92 | B12
13 | 0.25 | B13
14 | 0.58 | B14
15 | 0.92 | B15
16 | 1.05 | B16
17 | 1.36 | B17

Row | ratio of amounts bound (altered form/GLS3000) | Binder
18 | 1.12 | B18
19 | 1.05 | B19
20 | 1.46 | B20
21 | 0.75 | B21
22 | 0.99 | B22
23 | 0.79 | B23
24 | 0.78 | B24
25 | 1.05 | B25
26 | 1.38 | B26
27 | 0.95 | B27
28 | 0.84 | B28
29 | 0.65 | B29
30 | 0.95 | B30
31 | 1.04 | B31
32 | 1.13 | B32
33 | 0.92 | B33
